Measured values reported in article PMC3235116.
“And” between values parts separate entries of the source, which are not always exact repeats. Equal values may be shown once.

How the values were obtained:
[1] = biological target: fluorescently labeled, catalytically inactive derivative of human plasminogen (5'IAF-Pg S741C) (human); assay: fluorescence polarisation; Str enolase first brought to pH 4.5, then diluted into phosphate buffer pH 6.7 (non-native enolase); labelled hPgn 140 nM, Str enolase 0.057 mM, 20°C
[2] = biological target: canine plasminogen (canine); assay: ITC; Str enolase brought to pH 9 (precipitated), dialysed back to pH 6.9, 30% activity left; enolase titrated into dPgn, close to 20°C
[3] = biological target: Streptococcus pyogenes enolase F137L/E363G with an N-terminal hexa-histidine tag (Streptococcus pyogenes) (UniProt P69949); assay: AUC; each his-tagged enolase alone in SPR binding buffer (no Mg2+, with EDTA, pH 7.4); octamer to monomers
[4] = biological target: canine plasminogen (canine); assay: co-sedimentation; dPgn made to precipitate with reductant (0.2 M DTT) in the presence of native soluble Str enolase; centrifuged, pellets and supernates on SDS-PAGE; initial dPgn:enolase monomer 1:1 or 1:3
[5] = biological target: Streptococcus pyogenes enolase F137L/E363G with an N-terminal hexa-histidine tag (Streptococcus pyogenes) (UniProt P69949); assay: AUC; F137L/E363G enolase incubated at pH 4.5 for one hour and dialysed overnight against SPR binding buffer; soluble fraction; octamer to monomers
[6] = biological target: canine plasminogen (canine); assay: SPR; dPgn amine-coupled at pH 4.5 to CM4 chip (340 RU); titration with F137L/E363G Str enolase 0-500 nM (2-fold series), 25°C
[7] = biological target: Streptococcus pyogenes enolase F137L/E363G with an N-terminal hexa-histidine tag (Streptococcus pyogenes) (UniProt P69949); assay: AUC; sedimentation velocity of each purified enolase alone, native (data not shown); octamer
[8] = biological target: wild type Streptococcus pyogenes enolase with no tag (Streptococcus pyogenes) (UniProt P69949); assay: as above
[9] = biological target: Streptococcus pyogenes enolase F137L/E363G with an N-terminal hexa-histidine tag (Streptococcus pyogenes) (UniProt P69949); assay: co-sedimentation; Str enolase (300 nM) adsorbed to azolectin (phosphatidyl choline) micelles, dPgn 1000 nM, 10 mM potassium phosphate, 100 mM NaCl, 4°C three days, 20 000 rpm 2 h, SDS-PAGE of pellets and supernates
[10] = biological target: Streptococcus pyogenes enolase F137L/E363G with an N-terminal hexa-histidine tag (Streptococcus pyogenes) (UniProt P69949); assay: SPR; N-terminal His6 F137L/E363G Str enolase captured at neutral pH on Ni-NTA chip (~150 RU); single-cycle titration 15-2000 nM
[11] = biological target: Streptococcus pyogenes enolase F137L/E363G with an N-terminal hexa-histidine tag (Streptococcus pyogenes) (UniProt P69949); assay: ITC; Str enolase brought to pH 4.5 (precipitated), dialysed to pH 6.9, dissolved in 27% urea, dialysed again at pH 6.9, about 30% specific activity left; enolase titrated with dPgn, close to 20°C
[12] = biological target: wild type Streptococcus pyogenes enolase with a C-terminal deca-histidine tag (Streptococcus pyogenes) (UniProt P69949); assay: AUC; each his-tagged enolase alone in SPR binding buffer (no Mg2+, with EDTA, pH 7.4); octamer to monomers
[13] = biological target: wild type Streptococcus pyogenes enolase with a C-terminal deca-histidine tag (Streptococcus pyogenes) (UniProt P69949); assay: AUC; sedimentation velocity of each purified enolase alone, native (data not shown); octamer
[14] = system: P69949; assay: AUC; each his-tagged enolase alone in SPR binding buffer (no Mg2+, with EDTA, pH 7.4); octamer to monomers
[15] = system: P69949; assay: AUC; F137L/E363G enolase incubated at pH 4.5 for one hour and dialysed overnight against SPR binding buffer; soluble fraction; octamer to monomers
[16] = biological target: wild type Streptococcus pyogenes enolase with an N-terminal hexa-histidine tag (Streptococcus pyogenes) (UniProt P69949); assay: AUC; each his-tagged enolase alone in SPR binding buffer (no Mg2+, with EDTA, pH 7.4); octamer to monomers
[17] = biological target: wild type Streptococcus pyogenes enolase with an N-terminal hexa-histidine tag (Streptococcus pyogenes) (UniProt P69949); assay: AUC; sedimentation velocity of each purified enolase alone, native (data not shown); octamer

Streptococcus pyogenes enolase F137L/E363G with an N-terminal hexa-histidine tag (from UniProt P69949 1-435) (enzyme)
P (polarization) [1]: 0.43
stoichiometry N (sites per enolase monomer) [2]: 0.18
% octameric [3]: 57%
% of the precipitated protein that was Str enolase (initial ratio 1:1) [4]: 12%
% of the precipitated protein that was Str enolase (initial ratio 1:3) [4]: 25%
dPgn:enolase ratio in the pellet (initial ratio 1:1) (dPgn per enolase) [4]: 6
dPgn:enolase ratio in the pellet (initial ratio 1:3) (dPgn per enolase) [4]: 3
% octameric [5]: 19%
half saturation of all the association phases [6]: 50 nM
% octameric [7]: > 90%
stoichiometry N [7]: 8

wild type Streptococcus pyogenes enolase with no tag (from UniProt P69949 1-435) (enzyme)
% octameric [8]: > 90%
stoichiometry N [8]: 8

canine plasminogen (natural protein)
amount of dPgn relative to Str enolase that co-sedimented (Str enolase per dPgn (as 1:x)) [9]: 1 and 1.2
stoichiometry N (dPgn per enolase monomer) [10]: 1
stoichiometry N (dPgn per enolase monomer) [11]: 0.34

wild type Streptococcus pyogenes enolase with a C-terminal deca-histidine tag (from UniProt P69949 1-435) (enzyme)
% octameric [12]: 68%
% octameric [13]: > 90%
stoichiometry N [13]: 8

Streptococcus pyogenes enolase F137L/E363G with an N-terminal hexa-histidine tag
% monomeric [14]: 36%
% monomeric [15]: 75% was monomeric

wild type Streptococcus pyogenes enolase with a C-terminal deca-histidine tag
% monomeric [14]: 18%

wild type Streptococcus pyogenes enolase with an N-terminal hexa-histidine tag
% monomeric [14]: 5%

wild type Streptococcus pyogenes enolase with an N-terminal hexa-histidine tag (from UniProt P69949 1-435) (enzyme)
% octameric [16]: 88%
% octameric [17]: > 90%
stoichiometry N [17]: 8
